This is an account of results in US7109170B2, “Region of factor IXa protease domain that interacts with factor VIIIa and methods therefor” (Saint Louis University, priority 1999, dated 2006).

The assay deals with T1, factor VIIIa (Homo sapiens, UniProt P00451).
T1 construct: purchased Dr. Leon Hoyer (American Red Cross, Rockville, Md.)
T1 sequence (P00451 20-759 limits assumed): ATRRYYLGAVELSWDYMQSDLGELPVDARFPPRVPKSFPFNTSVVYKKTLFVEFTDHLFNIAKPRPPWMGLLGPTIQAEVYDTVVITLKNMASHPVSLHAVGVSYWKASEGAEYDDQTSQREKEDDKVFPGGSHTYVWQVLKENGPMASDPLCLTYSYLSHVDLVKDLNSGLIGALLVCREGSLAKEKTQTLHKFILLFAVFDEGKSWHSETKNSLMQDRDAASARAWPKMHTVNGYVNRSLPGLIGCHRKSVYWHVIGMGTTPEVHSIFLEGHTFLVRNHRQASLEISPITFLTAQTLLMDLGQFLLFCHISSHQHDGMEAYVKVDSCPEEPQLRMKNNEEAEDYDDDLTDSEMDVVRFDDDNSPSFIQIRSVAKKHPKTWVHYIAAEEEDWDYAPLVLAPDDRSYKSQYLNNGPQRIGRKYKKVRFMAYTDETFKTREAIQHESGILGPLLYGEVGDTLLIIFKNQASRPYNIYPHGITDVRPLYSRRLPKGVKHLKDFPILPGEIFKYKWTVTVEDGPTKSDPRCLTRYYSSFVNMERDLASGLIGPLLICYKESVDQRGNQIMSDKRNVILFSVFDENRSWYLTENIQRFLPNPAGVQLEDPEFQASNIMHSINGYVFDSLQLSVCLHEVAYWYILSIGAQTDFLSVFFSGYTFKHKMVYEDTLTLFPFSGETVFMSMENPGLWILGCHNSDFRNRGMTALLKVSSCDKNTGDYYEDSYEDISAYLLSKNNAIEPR
T1 sequence (P00451 1668-2351 limits assumed): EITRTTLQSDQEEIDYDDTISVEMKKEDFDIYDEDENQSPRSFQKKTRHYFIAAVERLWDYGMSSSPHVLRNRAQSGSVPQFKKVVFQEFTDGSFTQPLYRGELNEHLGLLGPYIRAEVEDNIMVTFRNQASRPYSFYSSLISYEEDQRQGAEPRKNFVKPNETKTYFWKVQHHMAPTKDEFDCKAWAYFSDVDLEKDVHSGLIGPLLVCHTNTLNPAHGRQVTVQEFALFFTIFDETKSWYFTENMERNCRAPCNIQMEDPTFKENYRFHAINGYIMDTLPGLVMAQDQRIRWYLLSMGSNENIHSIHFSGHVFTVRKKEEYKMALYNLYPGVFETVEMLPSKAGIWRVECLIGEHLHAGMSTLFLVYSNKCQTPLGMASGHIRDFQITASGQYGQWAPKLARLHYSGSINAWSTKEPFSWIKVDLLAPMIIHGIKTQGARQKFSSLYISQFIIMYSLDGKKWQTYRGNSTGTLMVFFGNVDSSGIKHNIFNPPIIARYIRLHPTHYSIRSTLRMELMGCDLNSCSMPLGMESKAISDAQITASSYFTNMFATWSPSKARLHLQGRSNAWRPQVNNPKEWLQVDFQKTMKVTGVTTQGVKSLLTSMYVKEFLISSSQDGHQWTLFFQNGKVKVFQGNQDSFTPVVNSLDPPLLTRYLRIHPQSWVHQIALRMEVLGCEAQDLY
Description: inhibition of Xa generation by active site-blocked (DEGR) IXa proteins, presence of phospholipid (Kd,app for VIIIa). Format: biochemical. Here is the method: Apparent Kds of factor VIIIa binding to various active site-blocked factor IXa proteins were determined from inhibition experiments as detailed in Mathur et al., 1997, supra. […] Reactions were carried out for 2 min and the rates of factor X activation were measured as outlined above.
Various DEGR-ck-inhibited factor IXa proteins were prepared for these experiments as follows. IXNP, IXWT, and each mutant factor IX at 200 μg/ml was activated by factor XIa (2 μg/ml) for 90 min. in TBS, pH 7.4 (0.05 M Tris, 0.15 M NaCl, pH 7.4) containing 5 mM Ca^2+.
Enzymol. 74, 481–508 given below:
[formula] where y is the rate of Xa formation in the presence of a given concentration of DEGR-IXa protein represented by x, a is the maximum rate of Xa formation in the absence of DEGR-IXa, and s is the slope factor. Each point was weighted equally and the data were fitted to Equation 1 using the nonlinear regression analysis program obtained from Erithacus Software (GraFit). […] To obtain the Kd,app values for the interaction of DEGR-IXa proteins with factor VIIIa, the following equation was used, as described by Cheng and Prusoff, 1973, Biochem. Pharmacol. 22, 3099–3108 and further discussed by Craig, 1993, Trends Pharmacol. Sci. 6, 68–71.

With “IXaV331A: activated factor IX mutant V331A”, the Kd (active site-blocked (DEGR) IXa proteins, 10 μM phospholipid, read-out: Kd, app for interaction with factor VIIIa, PL-plus system) is 0.61 ± 0.08 nM. Further, the “fold-reduction in affinity for factor VIIIa compared with DEGR-IXaWT” value (presence of phospholipid) was determined as 11 fold.
